Series [1] is classed as in vitro ADME. The following applies: mouse, serum.
Description: Labeling of RP-832 and MART-1 with ^68Ga was accomplished by adding 10 μg of peptide to 500 μCi of ^68GaCl3 in 50 μL of 1 M sodium acetate buffer (pH 4.5). The reactions were incubated in a thermomixer at 95 degrees Celsius for 14 minutes with 300 rpm agitation. Incorporation of the ^68Ga was determined by radio-High Performance Liquid Chromatography (HPLC) immediately after the reaction. Analysis was performed using a C-18 column. The gradient elution system utilized mobile phase A (100% water 0.1% TFA) and mobile phase C (Acetonitrile containing 0.1% TFA) with a flow rate of 1.0 mL/min. The gradient started with 100% A and was increased to 100% C over 6.67 minutes and then returned to the initial gradient conditions within 4.66 minutes. […] The mixtures were incubated at 37 degrees Celsius with 400 rpm agitation up to three hours. Aliquots were removed at different time points (30 minutes, 1, 2, 3 h) to evaluate stability and analyzed using radio-HPLC as described above. All experiments were completed in triplicate.
Series [2] in a line: in vivo. More on the design: species or system BALB/c mice. As to conditions: BALB/c, mouse, total radioactivity, average percent injected dose per gram of organ. The protocol:
4T1 cells, a mouse breast cancer cell line (ATCC), and CT26 cells, a mouse colon carcinoma cell line (ATCC), were cultured in RPMI-1640 medium (ATCC) with 10 percent fetal bovine serum and 0.1 percent gentamicin at 37 degrees Celsius with 5 percent CO2. Wild-type BALB/c mice (Charles River) were used for syngeneic 4T1 and CT26 tumor models and were subcutaneously injected in the shoulder with 200,000 4T1 cells and 2×10^6 CT26 cells (with Matrigel). Tumors were allowed to grow for 10 days. Following the [^68Ga]832c imaging studies, animals were euthanized, and organs of interest removed and assessed for radioactivity. For all biodistribution studies, specific uptake for each tissue was measured with background and decay correction and expressed as percent injected dose per gram of tissue (% ID/g) as calculated by normalization to the total activity injected.

The nature of series [3]: in vivo. More on the design: species or system BALB/c mice. The following applies: BALB/c, mouse, total radioactivity. The protocol:
(§1) 4T1 cells, a mouse breast cancer cell line (ATCC), and CT26 cells, a mouse colon carcinoma cell line (ATCC), were cultured in RPMI-1640 medium (ATCC) with 10 percent fetal bovine serum and 0.1 percent gentamicin at 37 degrees Celsius with 5 percent CO2. Wild-type BALB/c mice (Charles River) were used for syngeneic 4T1 and CT26 tumor models and were subcutaneously injected in the shoulder with 200,000 4T1 cells and 2×10^6 CT26 cells (with Matrigel). Tumors were allowed to grow for 10 days. Dynamic imaging studies were performed with a GNEXT small animal PET/CT (SOFIE). […] After 45 minutes, a high-resolution CT scan was obtained for anatomical reference. […] After 1 hour, a high-resolution CT scan was obtained for anatomical reference. During imaging, mice were anesthetized with 2.5 percent isoflurane/oxygen. The PET data was reconstructed into 5-minute time frames. Regions of interest (ROI) were drawn based on the CT anatomical guidelines. The mean standardized uptake value (SUV) was quantified using VivoQuant software with the equation: Where C is the activity concentration in tissue, dose is the injected dose, and weight is the body weight of the mouse. Statistical analysis was conducted with Graphpad Prism software.

Another series relates to syngeneic 4T1 tumors. Description: in vivo. As to conditions: mouse. More on the design: species or system BALB/c mice. How it is done: as §1
Another series concerns syngeneic CT26 tumors. As to the kind of experiment: in vivo. As to conditions: mouse. More on the design: species or system BALB/c mice. The protocol:
as §1

In series [4] the test system is tumor associated macrophages (TAMs). The following applies: cited from earlier work.
Series [5] deals with PDL1 unresponsive melanoma. The following applies: PDL1 unresponsive melanoma murine models; cited from earlier work.
A further series concerns CD206 macrophages. As to conditions: through interactions with CD206 macrophages; cited from earlier work.
For another series, the target named is T1, Recombinant human CD206 (Homo sapiens, UniProt P22897).
T1 construct: purchased R&D systems 2534-MR-050
T1 sequence (P22897 19-1456): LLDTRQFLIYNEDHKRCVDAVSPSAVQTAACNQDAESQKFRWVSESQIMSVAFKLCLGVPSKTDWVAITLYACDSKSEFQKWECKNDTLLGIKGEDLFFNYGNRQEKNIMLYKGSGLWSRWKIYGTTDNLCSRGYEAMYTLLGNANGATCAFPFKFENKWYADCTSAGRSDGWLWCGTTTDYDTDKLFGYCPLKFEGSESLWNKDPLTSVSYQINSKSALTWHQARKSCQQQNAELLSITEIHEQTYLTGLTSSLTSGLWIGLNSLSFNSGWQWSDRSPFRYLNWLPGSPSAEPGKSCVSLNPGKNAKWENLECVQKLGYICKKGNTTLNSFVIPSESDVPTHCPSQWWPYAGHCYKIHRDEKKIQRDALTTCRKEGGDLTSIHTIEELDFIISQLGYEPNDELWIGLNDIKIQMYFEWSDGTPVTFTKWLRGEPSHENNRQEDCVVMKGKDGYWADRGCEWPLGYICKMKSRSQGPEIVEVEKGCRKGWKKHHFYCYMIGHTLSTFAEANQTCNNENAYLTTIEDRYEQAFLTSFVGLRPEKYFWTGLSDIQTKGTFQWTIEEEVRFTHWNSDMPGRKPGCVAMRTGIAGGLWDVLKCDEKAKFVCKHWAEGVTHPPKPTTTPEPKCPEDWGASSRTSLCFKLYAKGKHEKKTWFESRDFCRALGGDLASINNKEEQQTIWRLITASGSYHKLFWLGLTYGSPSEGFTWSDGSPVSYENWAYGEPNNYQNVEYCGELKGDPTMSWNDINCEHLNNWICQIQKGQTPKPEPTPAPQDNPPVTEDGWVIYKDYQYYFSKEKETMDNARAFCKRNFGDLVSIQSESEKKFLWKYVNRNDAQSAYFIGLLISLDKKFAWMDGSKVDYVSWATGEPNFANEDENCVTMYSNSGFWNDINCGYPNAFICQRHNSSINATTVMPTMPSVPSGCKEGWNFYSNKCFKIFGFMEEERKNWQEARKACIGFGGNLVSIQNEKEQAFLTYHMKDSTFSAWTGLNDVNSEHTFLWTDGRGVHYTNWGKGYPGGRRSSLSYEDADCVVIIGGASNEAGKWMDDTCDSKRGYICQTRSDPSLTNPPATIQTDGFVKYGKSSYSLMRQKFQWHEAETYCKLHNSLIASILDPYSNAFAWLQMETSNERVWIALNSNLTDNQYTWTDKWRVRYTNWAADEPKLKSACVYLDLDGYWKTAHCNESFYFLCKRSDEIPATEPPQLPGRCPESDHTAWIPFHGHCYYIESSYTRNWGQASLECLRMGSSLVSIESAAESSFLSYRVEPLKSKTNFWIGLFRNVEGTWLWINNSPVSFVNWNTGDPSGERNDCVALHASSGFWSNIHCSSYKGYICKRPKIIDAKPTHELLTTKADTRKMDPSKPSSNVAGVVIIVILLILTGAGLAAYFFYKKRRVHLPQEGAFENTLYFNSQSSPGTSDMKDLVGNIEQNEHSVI
Description: Surface plasmon resonance (Biacore T200), immobilized CD206. The class given is binding. The following applies: all concentrations (0.5 uM-10 uM). The protocol: All SPR experiments were carried out using a Biacore T200 Biosensor instrument (GE Health Life Sciences, Piscataway, NJ). CM5 sensor chips, amine coupling reagents, and running buffers used in the binding analysis were obtained from Cytivalifesciences (Marlborough, MA).
Recombinant human CD206 was purchased from R&D systems (Catalog #2534-MR-050). CD206 protein was immobilized onto a CM5 sensor chip surface via standard amine coupling chemistry, using HBS-P+ running buffer (10 mM HEPES, [pH 7.4], 150 mM NaCl, and 0.05% Surfactant 20) at 25° C., as per manufacturer recommendation (Cytiva, Marlborough, MA). Briefly, carboxyl groups on the sensor chip flow cell surface (flow cell 2) were activated by injecting an equal mixture of 200 mM N-hydroxysuccinimide (NHS) and 50 mM 1-ethyl-3-(3-dimethylaminopropyl) carbodiimide hydrochloride) (EDC) at a flow rate of 10 μl/min. CD206 (25 μg/mL) was then diluted in 10 mM sodium acetate buffer pH 5.0 and injected over the surface at a flow rate of 10 μl/min until a level of 5000 resonance units (RU) was reached. This was followed by a 7 min injection of 1 M ethanolamine (pH 8) to block excessive reactive esters and wash away any non-covalently bound CD206. A blank flow cell surface (flow cell 1) was similarly activated with no protein injection, and used as a reference to subtract non-specific binding and bulk refractive index. […]
A general note: In SPR one partner is held on a chip, and binding of the other changes the refractive index at the surface.

Where a SMILES comes first, the peptide text is derived from it. The star is where a group is joined. DOTA = O=C(O)CN1CCN(CC(=O)O)CCN(CC(=O)*)CCN(CC(=O)O)CC1

Data on 3 compounds can be found in patent US20250161505A1, “CD206 Targeted Peptide Conjugates and Methods of Using the Same” (Riptide Bioscience, Inc., priority 2022, published 2025).

With `N=C(N)NCCC[C@H](NC(=O)[C@H](Cc1c[nH]c2ccccc12)NC(=O)[C@H](CCCCN)NC(=O)[C@H](Cc1ccccc1)NC(=O)CNC(=O)CNC(=O)[C@H](Cc1ccccc1)NC(=O)[C@H](CCCCN)NC(=O)[C@H](Cc1c[nH]c2ccccc12)NC(=O)[C@H](CCCNC(=N)N)NC(=O)CN1CCN(CC(=O)O)CCN(CC(=O)O)CCN(CC(=O)O)CC1)C(=O)O` [[^68Ga]RP832c, metal not drawn] ({DOTA}-RWKFGGFKWR-OH), the “free ^68Ga (^68Ga remained complexed)” value in [1] is recorded as “less than one percent free ^68Ga”. Moreover, the tissue uptake at 1.5 h in “in vivo [2]” (15 uCi, liver) worked out at 1.66 %ID/g; in “in vivo [2]” (15 uCi, spleen), 0.67 %ID/g; in “in vivo [2]” (15 uCi, tumor) it was 0.4 %ID/g; in the series “in vivo [2]” (liver), 1.46 %ID/g; in “in vivo [2]” (spleen), 0.91 %ID/g; in “in vivo [2]” (tumor), 0.57 %ID/g. For the same compound, the SUV at 0.25 h in the series “in vivo [3]” stood at 0.25 SUV. Besides, the SUV at 40 min in the series “in vivo [3]” was 0.5 SUV. In addition, in the series with syngeneic 4T1 tumors, the “highest signal in MIP images” value is listed as “bladder”. Moreover, the “highest signal in maximum intensity projections (MIPs)” value in the series with syngeneic CT26 tumors was “kidneys and bladder”.

For RWKFGGFKWR [RP-832c], in [4], the “effect on population of tumor associated macrophages” value is “shift the population of tumor associated macrophages (TAMs) from M2 (pro-tumor) towards a M1 phenotype (anti-tumor)”. For the same compound, the “effect on tumor resistance” value in series [5] is given as “shown promise in inhibiting tumor resistance”. Moreover, the “effect on bleomycin induced pulmonary fibrosis” value in the series on CD206 macrophages was “inhibit bleomycin induced pulmonary fibrosis”.

In the case of “DOTA-MART-1: MART-1 peptide with DOTA, not radiolabeled, control in SPR”, the binding sensorgram result with Recombinant human CD206 was “no binding”.

By tissue uptake is commonly meant the percentage of the injected dose found per gram of tissue.
